We go through two molecules from paper PMC8368100, “Structural basis for ALK2/BMPR2 receptor complex signaling through kinase domain oligomerization” (Nature Communications, 2021).

Numbering of substitutions follows the chain as printed. Names and notes keep the numbering of the source.

The assay concerns the target T1, BMPR2 kinase domain (BMPR2^KD, residues 189-529) (human, UniProt Q13873 189-529).
T1 construct: BMPR2, type II BMP receptor, kinase domain, residues 189-529; TEV site between His tag and kinase domain; also called BMP receptor type II; source: BL21 E. coli, purified (Ni-NTA, TEV cleavage, SEC, Mono-Q); not shown: His tag, N-terminal, cleaved
T1 sequence (looked up): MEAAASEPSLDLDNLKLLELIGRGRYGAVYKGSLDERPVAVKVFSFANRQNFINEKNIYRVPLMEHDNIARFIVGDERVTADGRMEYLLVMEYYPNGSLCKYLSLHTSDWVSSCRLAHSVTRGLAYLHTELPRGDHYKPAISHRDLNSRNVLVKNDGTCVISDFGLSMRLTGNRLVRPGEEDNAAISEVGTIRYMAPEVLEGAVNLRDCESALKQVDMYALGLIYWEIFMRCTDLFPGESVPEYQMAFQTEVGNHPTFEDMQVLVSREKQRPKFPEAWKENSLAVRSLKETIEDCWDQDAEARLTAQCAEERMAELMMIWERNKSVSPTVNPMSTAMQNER
The assay can be described thus: SEC; Superdex 200 Increase 10/300 GL; kinase domains alone or as a stoichiometric mixture; also run in buffers with increasing NaCl. To be noted: both partners purified. In general terms: In gel filtration, larger molecules generally elute earlier.

B1: ALK2 kinase domain (ALK2^KD, residues 201-499) (domain or fragment, human, UniProt Q04771 201-499, looked up)
chain: QRTVARQITLLECVGKGRYGEVWRGSWQGENVAVKIFSSRDEKSWFRETELYNTVMLRHENILGFIASDMTSRHSSTQLWLITHYHEMGSLYDYLQLTTLDTVSCLRIVLSIASGLAHLHIEIFGTQGKPAIAHRDLKSKNILVKKNGQCCIADLGLAVMHSQSTNQLDVGNNPRVGTKRYMAPEVLDETIQVDCFDSYKRVDIWAFGLVLWEVARRMVSNGIVEDYKPPFYDVVPNDPSFEDMRKVVCVDQQRPNIPNRWFSDPTLTSLAKLMKECWYQNPSARLTALRIKKTLTKID
notes: ALK2 (ACVR1), type I BMP receptor, kinase domain without the GS domain, residues 201-499; TEV site between His tag and kinase domain; also called ACVR1; ActRIA; source: SF9 insect cells, purified (Ni-NTA, TEV cleavage, SEC); not shown: His tag, N-terminal, cleaved
Take B1: the binding result is reported as “binds”.

B2: ALK2^KD-K492A (ALK2 kinase domain K492A) (domain or fragment, human, UniProt Q04771 201-499, looked up)
chain: B1 chain with K292A
notes: ALK2 (ACVR1) kinase domain, residues 201-499, K492A; source: SF9 insect cells, purified (Ni-NTA, TEV cleavage, SEC); not shown: His tag, N-terminal, cleaved
For B2, the binding result is reported as “binds”.
